These results are taken from patent publication US20180199611A1 (UNIVERSITY OF FLORIDA RESEARCH FOUNDATION, published 2018).

The target in the experiment is T1, I-A(b) MHC II molecule (;mouse, UniProt P14434 24-218; P14483 28-226).
T1 construct: Custom-prepared PE-labeled tetramer
T1 sequence (MHC II alpha): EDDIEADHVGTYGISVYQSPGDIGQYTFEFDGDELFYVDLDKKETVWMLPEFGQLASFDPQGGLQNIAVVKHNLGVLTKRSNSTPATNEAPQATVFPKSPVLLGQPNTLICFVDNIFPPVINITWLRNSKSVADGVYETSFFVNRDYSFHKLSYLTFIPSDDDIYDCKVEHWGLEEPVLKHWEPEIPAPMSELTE
T1 sequence (MHC II beta): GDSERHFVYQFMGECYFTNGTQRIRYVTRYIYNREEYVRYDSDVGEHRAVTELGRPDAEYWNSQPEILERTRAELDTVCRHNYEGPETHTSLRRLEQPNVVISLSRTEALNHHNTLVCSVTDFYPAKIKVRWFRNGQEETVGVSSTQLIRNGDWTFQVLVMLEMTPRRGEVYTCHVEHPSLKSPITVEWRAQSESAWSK
As to the kind of experiment: peptide binding to MHC II during preparation of I-A(b) tetramers; method not described.

B1: DlaT 245-259 peptide (VAPPAPVAPSAPVAA) (peptide)
peptide: VAPPAPVAPSAPVAA
notes: Synthetic 15-mer; It was loaded in a custom PE-labeled I-A(b) tetramer; also called Tetramer DlaT^245 peptide; pep of dihydrolipoamide acyltransferase
On to B1, for which the binding result is on record as “binds”.
